The results in this text go back to paper PMC6980855.

For assay [1], the target named is Alexa647-labeled Bax (single cysteine mutant 126C) (human (H. sapiens)) (UniProt Q07812).
In assay [2] the target is Alexa568-labeled BimL-4E (mouse (M. musculus)). The experiment in a line: FRET or BRET; in solution, no membranes; constant Alexa568-labeled BimL protein (donor; 4 nM by the legend of Figure 3C, 20 nM by that of Figure 6-figure supplement 1) with increasing Alexa647-labeled Bax (acceptor); FRET from the decrease in Alexa568 fluorescence; fit: one site, specific binding with Hill slope. Background: Bioluminescence resonance energy transfer reports proximity on the nanometre scale.

Assay [3] addresses Alexa568-labeled BimL-dCTS (mouse (M. musculus)). Kind of assay: FRET or BRET; with mouse liver mitochondria present; 4 nM Alexa568-labeled BimL or BimL-dCTS with increasing Alexa647-labeled Bax; fit in the sheet: Kd fitting advanced (donor fixed at 4).
The target of assay [4] is Alexa568-labeled BimL-V124E (mouse (M. musculus)). The experiment in a line: FRET or BRET; in solution, no membranes; 20 nM Alexa568-labeled BimL protein (donor) with increasing Alexa647-labeled Bcl-XL (acceptor); fit: one site, specific binding with Hill slope (BimL-dCTS: another model with a constant fixed at 4).
Assay [5] has as its target Alexa568-labeled BimL-CTS2A (mouse (M. musculus)). The assay is described as above.
The target of assay [6] is Alexa568-labeled BimL-I132E (mouse (M. musculus)). The assay is described as above.
In assay [7] the target is Alexa568-labeled BimL-I125E (mouse (M. musculus)). The assay is described as above.
Assay [8] deals with Alexa568-labeled BimL-4E (mouse (M. musculus)). Described as above.
Assay [9] deals with Alexa568-labeled BimL-L129E (mouse (M. musculus)). The assay is described as above.
Assay [10] addresses Alexa568-labeled BimL-dCTS (mouse (M. musculus)). The assay is described as above.
Assay [11] addresses Alexa568-labeled BimL (single-cysteine mutant BimL Q41C) (mouse (M. musculus)). The assay is described as above.
The target of assay [12] is BimL-dCTS (Alexa568-labeled, recombinant) (murine). Kind of assay: FRET or BRET; with mouse liver mitochondria present (Bak-/-; 0.2 mg/mL in Figure 7—figure supplement 1B); 4 nM Alexa568-labeled BimL protein, Alexa647-labeled Bax or Bcl-XL titrated; apparent Kd.
Assay [13] shares this target. Kind of assay: FRET or BRET; with mitochondrial-like liposomes present; constant Alexa568-labeled BimL protein (4 or 20 nM), Alexa647-labeled Bax or Bcl-XL titrated; apparent Kd.
For assay [14], the target named is BimL-I125E (Alexa568-labeled, recombinant) (murine). Kind of assay: FRET or BRET; values of Figure 6B (Alexa568-labeled BimL mutant, Alexa647-labeled Bcl-XL); the sentence does not say whether in solution or with liposomes.
Assay [15] addresses BimL-dCTS (Alexa568-labeled, recombinant) (murine). The experiment in a line: FRET or BRET; in solution, no membranes; constant Alexa568-labeled BimL protein (donor; 4, 10 or 20 nM), Alexa647-labeled Bax or Bcl-XL (acceptor) titrated; FRET from the decrease in Alexa568 fluorescence; Tecan infinite M1000.
Assay [16] addresses Bax (single cysteine 126C, Alexa647-labeled, recombinant) (H. sapiens) (UniProt Q07812).
Assay [17] shares this target. This is another data set of the same source.

Sequence of Bax (single cysteine 126C, Alexa647-labeled, recombinant) (H. sapiens) (Q07812 whole entry C62A): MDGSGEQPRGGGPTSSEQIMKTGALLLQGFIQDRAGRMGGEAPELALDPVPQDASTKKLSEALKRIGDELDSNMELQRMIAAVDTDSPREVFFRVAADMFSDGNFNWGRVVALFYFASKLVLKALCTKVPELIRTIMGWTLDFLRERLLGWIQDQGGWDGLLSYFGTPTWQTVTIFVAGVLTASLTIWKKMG
Sequence of Alexa647-labeled Bax (single cysteine mutant 126C) (human (H. sapiens)) (Q07812 other isoform, or with tags, fused parts or gaps mutant): as the sequence (Q07812 whole entry C62A) above
Sequence of Alexa568-labeled BimL-4E (mouse (M. musculus)) (main, as listed by the source): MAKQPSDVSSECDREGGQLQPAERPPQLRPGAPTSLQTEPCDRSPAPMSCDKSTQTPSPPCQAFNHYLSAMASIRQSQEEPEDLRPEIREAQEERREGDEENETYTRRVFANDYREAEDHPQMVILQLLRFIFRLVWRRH

Take “Alexa568-labeled BimL (single-cysteine mutant BimL Q41C) (natural protein)”: in assay [1], the EC50 of Bax (100 nM) activation by BimL: ANTS/DPX release from liposomes was determined as 0.549 nM.
In turn, “Alexa568-labeled BimL-I125E (natural protein)” registered an EC50 of Bax (100 nM) activation by BimL-I125E: ANTS/DPX release from liposomes in [1] of 105 nM.
In turn, “Alexa568-labeled BimL-I132E (natural protein)” displayed an EC50 of Bax (100 nM) activation by BimL-I132E: ANTS/DPX release from liposomes in [1] of 2800 nM.
Substance “Alexa568-labeled BimL-L129E (natural protein)” displayed an EC50 of Bax (100 nM) activation by BimL-L129E: ANTS/DPX release from liposomes in [1] of 2170 nM.
“Alexa568-labeled BimL-V124E (natural protein)” showed an EC50 of Bax (100 nM) activation by BimL-V124E: ANTS/DPX release from liposomes in assay [1] of 1.21 nM.
In [1], “Alexa568-labeled BimL-dCTS (domain or fragment)” had an EC50 of Bax (100 nM) activation by BimL-dCTS: ANTS/DPX release from liposomes of 489 µM.
On to “Alexa647-labeled Bax (single cysteine mutant 126C) (from UniProt Q07812 1-192) (natural protein)”, for which the Kd worked out at 74.9 µM in assay [2] and 5.75 nM in [3].
Take “Alexa647-labeled Bcl-XL (single cysteine mutant 152C) (from UniProt Q07817-1 1-233) (natural protein)”: the Kd amounted to 11.3 nM in assay [4]; 10.9 nM in assay [5]; 9.75 nM in [6]; 8.06 nM in [7]; 70.6 µM in assay [8]; 9.07 nM in [9]. Also, the results for the Kd in assay [10] and in [11] were 17.2 nM and 8.28 nM, respectively.
On to “Bcl-XL (single cysteine 152C, Alexa647-labeled, recombinant) (from UniProt Q07817-1 1-233) (natural protein)”, for which the Kd in assay [12] is 35 nM; in assay [13], 35 nM; in [14], under 3 nM; in assay [15], under 16 nM.
In the case of “BimL (single cysteine Q41C, Alexa568-labeled, recombinant) (natural protein)”, the ANTS/DPX release after adding increasing Bax to isolated liposomes carrying ~5 nM membrane-bound BimL in assay [16] turned out to be 60%. Also, the EC50 of Bax-mediated permeabilisation of ANTS/DPX liposomes (100 nM Bax) in [17] stood at 1 nM.
Regarding “BimL-I125E (Alexa568-labeled, recombinant) (natural protein)”, in assay [17], the EC50 of Bax-mediated permeabilisation of ANTS/DPX liposomes (100 nM Bax) came out at 100 nM.
